Publication PMC7667886, “Who with whom: functional coordination of E2 enzymes by RING E3 ligases during poly‐ubiquitylation” (The EMBO Journal, 2020)
Where a chain is given by its changes, count along the chain named.

Key:
[1] = biological target: T1, Ubc7 containing only the catalytic cysteine (C89only = C39A/C141S) (yeast, UniProt Q02159 1-165, C39A | C141S); test: SEC; purified Ubc7 and U7BR mixed in a 1:2 ratio, complex purified on Superdex 75; conditions: both partners purified
T1 construct: Ubc7, yeast ERAD E2 enzyme, single-cysteine variant C39A/C141S; also called Ubc7(C89only)
T1 sequence (looked up): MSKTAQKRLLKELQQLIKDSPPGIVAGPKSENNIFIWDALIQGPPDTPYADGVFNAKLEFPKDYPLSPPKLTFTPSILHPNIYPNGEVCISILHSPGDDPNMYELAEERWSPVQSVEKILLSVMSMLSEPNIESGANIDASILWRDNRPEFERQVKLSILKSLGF

Ubc7(wt) = biological target: T2, Ubc7(wt) (yeast, UniProt Q02159 1-165); test: as above; conditions: both partners purified
T2 construct: Ubc7, yeast ERAD E2 enzyme, wild type
T2 sequence (looked up): T1 sequence (looked up) with A39C, S141C

binding result [1]: binds
binding result (Ubc7(wt)): binds
B1: U7BR domain of Cue1 (aa 150–203) (domain or fragment, yeast, UniProt P38428 150-203, looked up)
chain: NLLDKFHVDLNEDMSNLSFKDLDIEERKRLLVWQARKNLETKLQSDKDLQSLLT
notes: Treated on Ni-NTA with thrombin and GST-hSENP1, then washed and eluted with imidazole; source: E. coli BL21/DE3, purified (Ni-NTA, incubation with thrombin and GST-hSENP1, imidazole elution, Superdex 75)
